# Source: US20200392227A1 (LYVGEN BIOPHARMA, published 2020)
# Read-outs that look alike come from different tables or passages of the source.
# B1: wild-type human IgG1 control (antibody)
# heavy: not shown
# light: SYELTQPPSVSVSPGQTASITCSGDNIGDQYAHWYQQKPGQSPVLVIYQDKNRPSGIPERFSGSNSGNTATLTISGTQAMDEADYYCATYTGFGSLAVFGGGTKLTVLGQPKAAPSVTLFPPSSEELQANKATLVCLISDFYPGAVTVAWKADSSPVKAGVETTTPSKQSNNKYAASSYLSLTPEQWKSHRSYSCQVTHEGSTVEKTVAPTECS
# notes: Control IgG
# B2: wild-type human IgG4 control (antibody)
# heavy: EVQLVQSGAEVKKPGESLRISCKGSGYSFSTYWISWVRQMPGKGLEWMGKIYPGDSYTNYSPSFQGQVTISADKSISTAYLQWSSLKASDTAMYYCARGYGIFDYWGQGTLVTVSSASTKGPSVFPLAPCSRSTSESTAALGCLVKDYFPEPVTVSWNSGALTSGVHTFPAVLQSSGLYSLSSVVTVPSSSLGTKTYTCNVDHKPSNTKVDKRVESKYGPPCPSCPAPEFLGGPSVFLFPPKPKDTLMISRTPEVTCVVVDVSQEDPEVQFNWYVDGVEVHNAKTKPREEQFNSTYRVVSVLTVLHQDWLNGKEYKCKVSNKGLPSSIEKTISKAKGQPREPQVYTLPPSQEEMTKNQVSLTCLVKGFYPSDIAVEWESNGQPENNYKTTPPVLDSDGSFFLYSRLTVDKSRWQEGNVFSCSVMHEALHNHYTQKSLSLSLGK
# light: B1 light
# notes: Control IgG
# How the values were obtained:
# Experiment in all cases: BLI
# [1] = target: T1, human FcRIIA protein (MednaBio, E1033) (human, UniProt P12318 34-218, limits assumed)
# T1 construct: Bought; also called FcγRIIA
# T1 sequence (looked up): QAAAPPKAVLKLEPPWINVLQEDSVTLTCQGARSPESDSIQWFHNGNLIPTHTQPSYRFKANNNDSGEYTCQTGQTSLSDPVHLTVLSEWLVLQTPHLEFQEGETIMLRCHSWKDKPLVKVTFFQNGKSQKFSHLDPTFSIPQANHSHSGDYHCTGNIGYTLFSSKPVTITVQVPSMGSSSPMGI
# Summary of the method: (§1)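 Binding was measured by biolayer interferometry on an Octet Red96 System, with commercial human Fc receptor proteins loaded at 20 μg/mL onto anti-penta-HIS biosensors. Sensors were dipped into an 8-point 1:3 dilution series of test IgG starting at 300 nM in PBS with 0.1% BSA and 0.02% Tween-20. Fcγ receptor assays ran at pH 7.2 and FcRn assays at pH 6. Kd, kon and koff came from global fitting to a 1:1 binding model.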
# [2] = target: T2, human FcRI protein (MednaBio, E1031) (human, UniProt P12314 16-288, limits assumed)
# T2 construct: Bought; loaded on anti-penta-HIS biosensors; also called FcγRI
# Summary of the method: as §1
# [3] = target: T1, human FcRIIA protein (MednaBio, E1033); remark: listed apart in the source
# Summary of the method: as §1
# [4] = target: T3, human FcRIIB/C protein (MednaBio, E1034) (human, UniProt P31994 43-217, limits assumed)
# T3 construct: Bought as FcRIIB/C; also called FcγRIIB; CD32B
# T3 sequence (looked up): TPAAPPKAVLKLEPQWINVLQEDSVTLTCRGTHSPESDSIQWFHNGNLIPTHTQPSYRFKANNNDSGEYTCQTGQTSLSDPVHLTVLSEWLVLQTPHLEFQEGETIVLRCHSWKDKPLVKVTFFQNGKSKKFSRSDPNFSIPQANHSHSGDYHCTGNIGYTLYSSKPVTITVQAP
# Summary of the method: as §1
# [5] = target: T4, human FcRIIIA-V158 protein (MednaBio, E1035) (human, UniProt P08637 17-208)
# T4 construct: Bought; also called FcγRIIIA(V); FcgRIIIA(V)
# Summary of the method: as §1
# [6] = target: T5, human FcRn protein (MednaBio, E1032) (human, UniProt P55899 24-297; P61769 21-119)
# T5 construct: Bought; assays at pH 6
# Summary of the method: as §1
# [7] = target: T2, human FcRI protein (MednaBio, E1031); remark: listed apart in the source
# [8] = target: T1, human FcRIIA protein (MednaBio, E1033); remark: listed apart in the source
# [9] = target: T3, human FcRIIB/C protein (MednaBio, E1034); remark: listed apart in the source
# [10] = target: T4, human FcRIIIA-V158 protein (MednaBio, …); remark: listed apart in the source
# [11] = target: T5, human FcRn protein (MednaBio, E1032); remark: listed apart in the source
# [12] = target: T2, human FcRI protein (MednaBio, E1031); remark: listed apart in the source
# Summary of the method: as §1
# [13] = target: T1, human FcRIIA protein (MednaBio, E1033); remark: listed apart in the source
# Summary of the method: as §1
# [14] = target: T3, human FcRIIB/C protein (MednaBio, E1034); remark: listed apart in the source
# Summary of the method: as §1
# [15] = target: T4, human FcRIIIA-V158 protein (MednaBio, …); remark: listed apart in the source
# Summary of the method: as §1
# [16] = target: T5, human FcRn protein (MednaBio, E1032); remark: listed apart in the source
# Summary of the method: as §1
# T2 sequence (P12314 16-288 limits assumed): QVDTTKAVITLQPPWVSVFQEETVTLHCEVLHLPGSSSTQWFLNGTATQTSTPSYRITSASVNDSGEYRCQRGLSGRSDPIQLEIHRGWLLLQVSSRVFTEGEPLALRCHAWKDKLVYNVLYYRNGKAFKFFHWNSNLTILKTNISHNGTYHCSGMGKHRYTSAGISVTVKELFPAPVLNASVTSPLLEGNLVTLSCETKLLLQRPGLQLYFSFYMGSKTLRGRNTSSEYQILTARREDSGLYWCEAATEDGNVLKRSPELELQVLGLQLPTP
# T4 sequence (P08637 17-208 F176V): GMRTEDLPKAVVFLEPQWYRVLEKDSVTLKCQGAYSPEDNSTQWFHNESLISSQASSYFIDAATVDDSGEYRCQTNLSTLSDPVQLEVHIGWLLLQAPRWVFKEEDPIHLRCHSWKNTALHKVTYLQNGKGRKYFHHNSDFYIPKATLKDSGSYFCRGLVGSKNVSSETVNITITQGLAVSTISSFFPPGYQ
# T5 sequence (P55899 24-297 limits assumed, form in doubt, chain 1 of 2): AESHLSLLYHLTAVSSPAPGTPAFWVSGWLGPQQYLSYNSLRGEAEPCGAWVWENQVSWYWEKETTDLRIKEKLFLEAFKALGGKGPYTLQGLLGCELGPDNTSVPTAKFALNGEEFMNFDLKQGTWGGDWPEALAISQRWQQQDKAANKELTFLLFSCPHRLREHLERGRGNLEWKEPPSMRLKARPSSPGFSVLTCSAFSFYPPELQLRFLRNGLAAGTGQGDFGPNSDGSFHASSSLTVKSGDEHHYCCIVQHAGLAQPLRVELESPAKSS
# T5 sequence (P61769 21-119 limits assumed, form in doubt, chain 2 of 2): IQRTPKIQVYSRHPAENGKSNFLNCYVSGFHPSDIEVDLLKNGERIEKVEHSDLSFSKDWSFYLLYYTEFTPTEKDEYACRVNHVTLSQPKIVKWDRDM
binder,measurement,setting,value
B1,Kd,[1],56 nM
same,koff,[1],0.032 s⁻¹
same,kon,[1],570000 M⁻¹ s⁻¹
same,Kd,[2],5.6 nM
same,koff,[2],0.0012 s⁻¹
same,kon,[2],220000 M⁻¹ s⁻¹
same,Kd,[3],56 nM
same,koff,[3],0.032 s⁻¹
same,kon,[3],570000 M⁻¹ s⁻¹
same,Kd,[4],130 nM
same,koff,[4],0.016 s⁻¹
same,kon,[4],120000 M⁻¹ s⁻¹
same,Kd,[5],60 nM
same,koff,[5],0.027 s⁻¹
same,kon,[5],450000 M⁻¹ s⁻¹
same,Kd,[6],16 nM
same,koff,[6],0.008 s⁻¹
same,kon,[6],480000 M⁻¹ s⁻¹
same,Kd,[7],5.6 nM
same,koff,[7],0.0012 s⁻¹
same,kon,[7],220000 M⁻¹ s⁻¹
same,Kd,[8],56 nM
same,koff,[8],0.032 s⁻¹
same,kon,[8],570000 M⁻¹ s⁻¹
same,Kd,[9],130 nM
same,koff,[9],0.016 s⁻¹
same,kon,[9],120000 M⁻¹ s⁻¹
same,Kd,[10],60 nM
same,koff,[10],0.027 s⁻¹
same,kon,[10],450000 M⁻¹ s⁻¹
same,Kd,[11],16 nM
same,koff,[11],0.008 s⁻¹
same,kon,[11],480000 M⁻¹ s⁻¹
same,Kd,[12],5.6 nM
same,koff,[12],0.0012 s⁻¹
same,kon,[12],220000 M⁻¹ s⁻¹
same,Kd,[13],56 nM
same,koff,[13],0.032 s⁻¹
same,kon,[13],570000 M⁻¹ s⁻¹
same,Kd,[14],130 nM
same,koff,[14],0.016 s⁻¹
same,kon,[14],120000 M⁻¹ s⁻¹
same,Kd,[15],60 nM
same,koff,[15],0.027 s⁻¹
same,kon,[15],450000 M⁻¹ s⁻¹
same,Kd,[16],16 nM
same,koff,[16],0.008 s⁻¹
same,kon,[16],480000 M⁻¹ s⁻¹
B2,Kd,[1],400 nM
same,koff,[1],0.055 s⁻¹
same,kon,[1],140000 M⁻¹ s⁻¹
same,Kd,[2],4.8 nM
same,koff,[2],0.0017 s⁻¹
same,kon,[2],360000 M⁻¹ s⁻¹
same,Kd,[3],400 nM
same,koff,[3],0.055 s⁻¹
same,kon,[3],140000 M⁻¹ s⁻¹
same,Kd,[4],400 nM
same,koff,[4],0.05 s⁻¹
same,kon,[4],140000 M⁻¹ s⁻¹
same,Kd,[5],550 nM
same,koff,[5],0.092 s⁻¹
same,kon,[5],170000 M⁻¹ s⁻¹
same,Kd,[6],18 nM
same,koff,[6],0.012 s⁻¹
same,kon,[6],640000 M⁻¹ s⁻¹
same,Kd,[7],4.8 nM
same,koff,[7],0.0017 s⁻¹
same,kon,[7],360000 M⁻¹ s⁻¹
same,Kd,[8],400 nM
same,koff,[8],0.055 s⁻¹
same,kon,[8],140000 M⁻¹ s⁻¹
same,Kd,[9],400 nM
same,koff,[9],0.05 s⁻¹
same,kon,[9],140000 M⁻¹ s⁻¹
same,Kd,[10],550 nM
same,koff,[10],0.092 s⁻¹
same,kon,[10],170000 M⁻¹ s⁻¹
same,Kd,[11],18 nM
same,koff,[11],0.012 s⁻¹
same,kon,[11],640000 M⁻¹ s⁻¹
same,Kd,[12],4.8 nM
same,koff,[12],0.0017 s⁻¹
same,kon,[12],360000 M⁻¹ s⁻¹
same,Kd,[13],400 nM
same,koff,[13],0.055 s⁻¹
same,kon,[13],140000 M⁻¹ s⁻¹
same,Kd,[14],400 nM
same,koff,[14],0.05 s⁻¹
same,kon,[14],140000 M⁻¹ s⁻¹
same,Kd,[15],550 nM
same,koff,[15],0.092 s⁻¹
same,kon,[15],170000 M⁻¹ s⁻¹
same,Kd,[16],18 nM
same,koff,[16],0.012 s⁻¹
same,kon,[16],640000 M⁻¹ s⁻¹
